Measured values reported in patent US20230355533A1, “BIODEGRADABLE POLYCAPROLACTONE CAPSULE FOR ANTIBODY RELEASE AND DEGRADATION” (University Of Cincinnati, priority 2022, published 2023).

Key:
[1] = Bev drug release kinetics model (cylindrical reservoir); details: calculated from Stokes-Einstein diffusion coefficient and hindrance factor
Excerpt: The equation used to model the release profile is
where Mt is the mass released at time t, M∞, is the mass loaded in the implant, Ri is the inner radius of the implant, Ro is outer radius of the implant, De is the effective diffusivity, K is the partition coefficient, and L is the length of the implant. This equation models Fick's law of diffusion of molecules from the lumen of a cylindrical implant through a membrane wall. Ro, Ri, and L can all be measured from the implants, but De and K must be determined experimentally or calculated from other parameters that can be determined experimentally to create this model. K may be determined experimentally, as described herein. To find De, permeability, Stokes-Einstein diffusion, hindrance factor for diffusion, hindrance factor, and the restrictive factor all were determined experimentally or calculated.
The permeability of Bev across the PCL membrane can be described by […]
where kB is the Boltzmann constant, T is the temperature in Kelvin, η is the viscosity of water at 25° C., and r is the hydrodynamic radius of Bev. The overall hindrance factor for diffusion, H, is expressed as: […]
where λ is the ratio of permeant radius to pore radius and Kt, the hinderance factor, is calculated by: […]
The last value that needs to be determined for Equation 3 is effective diffusivity (De). De can be determined from the equation: […]

[2] = Bev permeability across PCL membrane, vertical permeability column; assay type: physicochemical; details: 0.05 PEG PCL membrane, donor 50 mg/mL, area 0.78 cm^2
Method: The permeability experiments were conducted using a vertical permeability column. The donor side was filled with 200 μL of 50 mg/mL Bev solution and the receiver side was filled with 5 mL of PBS. […] The membranes were soaked in DI water for 24 h to remove the PEG and then placed in the column without drying. Once the membrane was securely placed between the donor and receiver sections, 200 μL of the donor solution was loaded and then the opening was sealed off to reduce evaporation altering the concentration of the donor and receiver solutions. 500 μL of the receiver and 10 μL of the donor solution were removed every 72 h to check the concentration using UV-Vis. The removed solutions were replaced by fresh PBS for the receiver solution and the donor was replaced by fresh donor solution or completely replaced depending on the remaining concentration.
After 12 days, the mass of Bev that permeated the membrane was plotted against time to get dQ/dt in the equation: […]
where Ci is the initial concentration (donor solution concentration), P is the permeability coefficient, and A is the area of the exposed membrane.

[3] = Bev partition coefficient in PCL membrane; assay type: physicochemical; details: equilibrium solution of 20 mg/mL
Method: The partition coefficient K is required for the release kinetics model equation. […] The membranes were soaked in 200 μL of PBS for 48 h. After 48 h the membranes were blotted with a Kimwipe to remove surface liquid and then weighed to determine the wet mass of the membrane. The membranes were then dried overnight in a chemical hood. The dry membranes were then placed in 200 μL of an equilibrium Bev solution for 72 h to allow the membranes to absorb the Bev from the solution. After 72 h the membranes were removed from the equilibrium, blotted, and placed in 200 μL of fresh PBS to extract Bev for 48 h. This extraction process was repeated until the amount extracted was 10% of the first extraction. The remaining equilibrium solution and all extraction solutions were analyzed using UV-Vis to determine the Bev concentration. The partition coefficient was then determined using the equation below.
where Me is the total mass extracted, W is the wet mass of the membrane, Meq is the amount of Bev left in the equilibrium solution, V is the volume of water left in the equilibrium solution, and ρ is the density of the solution.

TNF-α stimulated HUVECs = assay: IL-6 ELISA assay; assay type: cell-based, Human; details: Dex 33 μM, 24 h pretreatment, then 20 ng/mL TNF-α 24 h
Method: Human primary umbilical vein endothelial cells (HUVECs) were maintained in EBMTM-2 Basal Medium and EGMTM-2 SingleQuots™ Supplements (Lonza, Switzerland). HUVECs were grown in the cell incubator containing 5% CO2 at 37° C. When the cells were grown to 90% confluence, they were inoculated in 24-well plates. Briefly, 0.4 mL of HUVECs suspensions (8×104 HUVECs per well) were seeded in 24-well plates and incubated at 37° C, 5% CO2 for 24 h. […] After 24 h, all the conditions except the medium only were incubated with 20 ng/mL TNF-α for 24 h. […] At the end of experiments, the cell medium was collected and centrifuged at 2,000×g for 10 min to remove the particulate/debris materials. Then, supernatant was collected and stored at −20° C. until used. Each sample was pre-diluted using a standard dilution buffer to keep the sample concentrations within the range of standard curve. The concentration of pro-inflammatory cytokine (IL-6) in the cell culture supernatant was analyzed by the ELISA assay according to the manufacturer's recommendation (Invitrogen® human IL-6 ELISA kit). All tests were done in triplicate.

Substance | effective diffusion coefficient De [1] | Bev permeated across the membrane [2] [µg/day] | partition coefficient K [3] | IL-6 level in cell culture medium compared to TNF-α stimulated HUVECs (condition 2) (TNF-α stimulated HUVECs)
Bevacizumab | 5.59 × 10^−6 cm^2/day | 42.5 | 0.515 | 
Dexamethasone sodium phosphate [free Dex] |  |  |  | not significantly decreased
